Five proteins from PMC4944284, “Identification of a Functionally Relevant Adeno-Associated Virus Rep68 Oligomeric Interface” (Journal of Virology, 2016) can be followed below.

Data set [1] concerns the molecule itself. Put plainly: AUC; sedimentation velocity, protein 10 uM, 25 mM Tris-HCl pH 8.0, 200 mM NaCl, 25,000 rpm, 20°C, SEDFIT (Fig. 1B, C).
Data set [2] concerns the molecule itself. Put plainly: AUC; sedimentation velocity, all proteins at 1 mg/ml, else as in Materials and Methods (25 mM Tris-HCl pH 8.0, 200 mM NaCl, 20°C) (Fig. 2D).

B1: Rep68* (AAV2 Rep68 C151S) (enzyme)
chain: MPGFYEIVIKVPSDLDGHLPGISDSFVNWVAEKEWELPPDSDMDLNLIEQAPLTVAEKLQRDFLTEWRRVSKAPEALFFVQFEKGESYFHMHVLVETTGVKSMVLGRFLSQIREKLIQRIYRGIEPTLPNWFAVTKTRNGAGGGNKVVDESYIPNYLLPKTQPELQWAWTNMEQYLSACLNLTERKRLVAQHLTHVSQTQEQNKENQNPNSDAPVIRSKTSARYMELVGWLVDKGITSEKQWIQEDQASYISFNAASNSRSQIKAALDNAGKIMSLTKTAPDYLVGQQPVEDISSNRIYKILELNGYDPQYAASVFLGWATKKFGKRNTIWLFGPATTGKTNIAEAIAHTVPFYGCVNWTNENFPFNDCVDKMVIWWEEGKMTAKVVESAKAILGGSKVRVDQKCKSSAQIDPTPVIVTSNTNMCAVIDGNSTTFEHQQPLQDRMFKFELTRRLDHDFGKVTKQEVKDFFRWAKDHVVEVEHEFYVKKGGAKKRPAPSDADISEPKRVRESVAQPSTSDAEASINYADRLARGHSL
notes: source: E. coli BL21(DE3), purified (Ni column, gel filtration on Superdex 200)
B1: the binding result in data set [1] is recorded as “binds”.

B2: Rep68*-N254A (enzyme)
chain: MPGFYEIVIKVPSDLDGHLPGISDSFVNWVAEKEWELPPDSDMDLNLIEQAPLTVAEKLQRDFLTEWRRVSKAPEALFFVQFEKGESYFHMHVLVETTGVKSMVLGRFLSQIREKLIQRIYRGIEPTLPNWFAVTKTRNGAGGGNKVVDESYIPNYLLPKTQPELQWAWTNMEQYLSACLNLTERKRLVAQHLTHVSQTQEQNKENQNPNSDAPVIRSKTSARYMELVGWLVDKGITSEKQWIQEDQASYISFAAASNSRSQIKAALDNAGKIMSLTKTAPDYLVGQQPVEDISSNRIYKILELNGYDPQYAASVFLGWATKKFGKRNTIWLFGPATTGKTNIAEAIAHTVPFYGCVNWTNENFPFNDCVDKMVIWWEEGKMTAKVVESAKAILGGSKVRVDQKCKSSAQIDPTPVIVTSNTNMCAVIDGNSTTFEHQQPLQDRMFKFELTRRLDHDFGKVTKQEVKDFFRWAKDHVVEVEHEFYVKKGGAKKRPAPSDADISEPKRVRESVAQPSTSDAEASINYADRLARGHSL
notes: as for B1
B2: the binding result in data set [2] is “binds”.

B3: Rep68*-Y224P (enzyme)
chain: MPGFYEIVIKVPSDLDGHLPGISDSFVNWVAEKEWELPPDSDMDLNLIEQAPLTVAEKLQRDFLTEWRRVSKAPEALFFVQFEKGESYFHMHVLVETTGVKSMVLGRFLSQIREKLIQRIYRGIEPTLPNWFAVTKTRNGAGGGNKVVDESYIPNYLLPKTQPELQWAWTNMEQYLSACLNLTERKRLVAQHLTHVSQTQEQNKENQNPNSDAPVIRSKTSARPMELVGWLVDKGITSEKQWIQEDQASYISFNAASNSRSQIKAALDNAGKIMSLTKTAPDYLVGQQPVEDISSNRIYKILELNGYDPQYAASVFLGWATKKFGKRNTIWLFGPATTGKTNIAEAIAHTVPFYGCVNWTNENFPFNDCVDKMVIWWEEGKMTAKVVESAKAILGGSKVRVDQKCKSSAQIDPTPVIVTSNTNMCAVIDGNSTTFEHQQPLQDRMFKFELTRRLDHDFGKVTKQEVKDFFRWAKDHVVEVEHEFYVKKGGAKKRPAPSDADISEPKRVRESVAQPSTSDAEASINYADRLARGHSL
notes: as for B1
Regarding B3, the binding result in data set [1] is reported as “binds”.

B4: Rep68*-Y224D (enzyme)
chain: MPGFYEIVIKVPSDLDGHLPGISDSFVNWVAEKEWELPPDSDMDLNLIEQAPLTVAEKLQRDFLTEWRRVSKAPEALFFVQFEKGESYFHMHVLVETTGVKSMVLGRFLSQIREKLIQRIYRGIEPTLPNWFAVTKTRNGAGGGNKVVDESYIPNYLLPKTQPELQWAWTNMEQYLSACLNLTERKRLVAQHLTHVSQTQEQNKENQNPNSDAPVIRSKTSARDMELVGWLVDKGITSEKQWIQEDQASYISFNAASNSRSQIKAALDNAGKIMSLTKTAPDYLVGQQPVEDISSNRIYKILELNGYDPQYAASVFLGWATKKFGKRNTIWLFGPATTGKTNIAEAIAHTVPFYGCVNWTNENFPFNDCVDKMVIWWEEGKMTAKVVESAKAILGGSKVRVDQKCKSSAQIDPTPVIVTSNTNMCAVIDGNSTTFEHQQPLQDRMFKFELTRRLDHDFGKVTKQEVKDFFRWAKDHVVEVEHEFYVKKGGAKKRPAPSDADISEPKRVRESVAQPSTSDAEASINYADRLARGHSL
notes: as for B1
Regarding B4, the binding result in data set [1] is “binds”.

B5: Rep68*-Y224F (enzyme)
chain: MPGFYEIVIKVPSDLDGHLPGISDSFVNWVAEKEWELPPDSDMDLNLIEQAPLTVAEKLQRDFLTEWRRVSKAPEALFFVQFEKGESYFHMHVLVETTGVKSMVLGRFLSQIREKLIQRIYRGIEPTLPNWFAVTKTRNGAGGGNKVVDESYIPNYLLPKTQPELQWAWTNMEQYLSACLNLTERKRLVAQHLTHVSQTQEQNKENQNPNSDAPVIRSKTSARFMELVGWLVDKGITSEKQWIQEDQASYISFNAASNSRSQIKAALDNAGKIMSLTKTAPDYLVGQQPVEDISSNRIYKILELNGYDPQYAASVFLGWATKKFGKRNTIWLFGPATTGKTNIAEAIAHTVPFYGCVNWTNENFPFNDCVDKMVIWWEEGKMTAKVVESAKAILGGSKVRVDQKCKSSAQIDPTPVIVTSNTNMCAVIDGNSTTFEHQQPLQDRMFKFELTRRLDHDFGKVTKQEVKDFFRWAKDHVVEVEHEFYVKKGGAKKRPAPSDADISEPKRVRESVAQPSTSDAEASINYADRLARGHSL
notes: also called Y224F mutant; source: E. coli BL21(DE3), purified (Ni column, gel filtration on Superdex 200)
With B5, the binding result in data set [1] is on record as “binds”.
